Experimental data reported in patent publication US12491324B2, “Droplet device with inertial filtering” (PNEUMA RESPIRATORY, INC., priority 2016, dated 2025).
Where “and” joins values, the source holds several entries; their conditions need not be identical. Identical values can stand only once. Each block holds one substance with its values, some of them ahead of it.

Experiments:
Format in all cases: physicochemical
[1] = Anderson Cascade Impactor testing of droplet delivery device with Albuterol sulfate (Example B); conditions: Albuterol 0.5%, 28.3 lpm
Description: FIGS. 21A-21E provide a summary of the test results.

[2] = Insulin stability after aerosol generation, size exclusion chromatography (SEC)
Description: Size Exclusion Chromatography (SEC): Alternately, to determine the stability of active agent after droplet generation, the generated stream of droplets including the active agent may be collected and SEC-HPLIC may be employed to monitor for any changes in large molecule aggregation and protein fragment content. Soluble protein aggregates and protein fragment content may be calculated by comparing respective peak area under the SEC-HPLC curve of dispensed protein solutions with controls (solutions remaining in the device reservoir).
Drug solutions for testing include Enbrel, (ENBREL® single-use prefilled syringes in 25 mg (0.51 mL of a 50 mg/mL solution of etanercept), and insulin, (Humalog, 200 units/ml, 3 ml kwikpens)
Aerosol collection and SEC is performed in a similar fashion as for the Enbrel analysis and aerosol collection.
Fifty microliters of the collected aerosol spray is injected onto the SEC column for analysis, while 50 mcl of the Kwikpen insulin solution is injected onto the SEC column for control samples.

[3] = Gel electrophoresis of active agent after droplet generation; conditions: 'will show'
Description: Gel Electrophoresis: To determine the stability of active agent after droplet generation, the generated stream of droplets including the active agent is collected and the molecular weight of the active agent is verified using gel electrophoresis.

[4] = Enbrel stability after aerosol generation, size exclusion chromatography (SEC)
Description: Size Exclusion Chromatography (SEC): Alternately, to determine the stability of active agent after droplet generation, the generated stream of droplets including the active agent may be collected and […] may be employed to monitor for any changes in large molecule aggregation and protein fragment content. Soluble protein aggregates and protein fragment content may be calculated by comparing respective peak area under the SEC-HPLC curve of dispensed protein solutions with controls (solutions remaining in the device reservoir). Drug solutions for testing include Enbrel, (ENBREL® single-use prefilled syringes in 25 mg (0.51 mL of a 50 mg/mL solution of etanercept), and insulin, (Humalog, 200 units/ml, 3 ml […] is performed with a YarraTM 3 μm SEC-2000 LC column 300×7.8 mm, SecurityGuard cartridge kit and SecurityGuard cartridges GFC-2000, 4×3 mm ID. Fifty microliters of Enbrel from the syringe (ENBREL® single-use prefilled syringes in 25 mg/0.51 mL of a 50 mg/mL solution of etanercept) is diluted (4:1) (4 parts, 200 mcl of the mobile phase buffer solution to 1 part, 50 mcl Enbrel from syringe). Fifty microliter of the diluted Enbrel is injected and separation was performed at a flow rate of 1.0 ml/min. The mobile phase buffer system included a PHOS. BUFF. SALINE. […] UV detection is performed at 280 nm. […] An ampule/cartridge is filled with either 0.20 ml of Enbrel® (50 mg/ml) diluted 4:1 (10 mg/ml) (4 parts (200 mcl) of PBS and 0.025% NaN3 and 1 part (50 mcl of Enbrel solution from the syringe). After 20 actuations and aerosolization, about 150 mcl of the aerosolized Enbrel solution is recovered and collected in the polypropylene tube located below the ejector mechanism. The control consists of the diluted Enbrel solution, 50 mcl of which is injected into the SEC column for analysis.

[5] = aerosolized samples S1, S2 (summary table)
[6] = control, Enbrel diluted 4:1 (10 mg/ml), SEC UV 280 nm

Cum. % < ([1]; FILTER stage, 10 actuations): 0.00%
Cum. % > ([1]; FILTER stage, 10 actuations): 100.00%
Coarse ([1]; summary of deposition): 22.7
Fine ([1]; summary of deposition): 3.5
Mouthpiece ([1]; summary of deposition): 12.2
Respirable ([1]; summary of deposition): 69.3
Throat ([1]; summary of deposition): 4.6
Substance: Albuterol sulfate

Substance: Insulin: insulin, Humalog, 200 units/ml, 3 ml kwikpens
Peak 3 [2, 5]: 2.797 and 2.184
Peak 3 Peak Area % ([2]; control, Insulin from Kwikpen 200 U/ml, SEC): 0%
ejected dose forming a fragment ([2]; fragment eluting at ~25 minutes): 2.5%

Substance: adalimumab
change in the electrophoretic mobility, and hence the molecular weight, post-aerosol vs control [3]: negligible change

Substance: bevacizumab
change in the electrophoretic mobility, and hence the molecular weight, post-aerosol vs control [3]: negligible change

Substance: etanercept [Enbrel]
change in the electrophoretic mobility, and hence the molecular weight, post-aerosol vs control [3]: negligible change
Peak 4 [4, 5]: 0.357 and 0.352
Peak 5 [4, 5]: 5.123 and 3.428
Peak 4 Peak Area % [4, 6]: 0%
Peak 5 Peak Area % [4, 6]: 0%
dose leading to formation of molecular fragments ([4]; fragments with elution times of 13 and 25 minutes): 4.6%
